One experiment has as its target T1, cyno CD117 (Macaca fascicularis, UniProt A0A7N9CP24).
T1 construct: antigen of the Carterra SPR kinetics; also called cynomolgus monkey CD117
The experiment is described as follows: Carterra SPR, cyno CD117. The protocol: (§1) To further evaluate the antibodies discovered during the screens, 21 clones were selected for detailed characterization and were analyzed for target binding kinetics by a Carterra SPR instrument. The binding kinetics of the anti-CD117 antibodies for human CD117, cynomolgus monkey CD117, and murine CD117 are shown in FIG. 29A-29B.

The next experiment has as its target T2, mouse CD117 (mouse, UniProt P05532).
T2 construct: antigen of the Carterra SPR kinetics; also called murine CD117
T2 sequence (receptor, looked up): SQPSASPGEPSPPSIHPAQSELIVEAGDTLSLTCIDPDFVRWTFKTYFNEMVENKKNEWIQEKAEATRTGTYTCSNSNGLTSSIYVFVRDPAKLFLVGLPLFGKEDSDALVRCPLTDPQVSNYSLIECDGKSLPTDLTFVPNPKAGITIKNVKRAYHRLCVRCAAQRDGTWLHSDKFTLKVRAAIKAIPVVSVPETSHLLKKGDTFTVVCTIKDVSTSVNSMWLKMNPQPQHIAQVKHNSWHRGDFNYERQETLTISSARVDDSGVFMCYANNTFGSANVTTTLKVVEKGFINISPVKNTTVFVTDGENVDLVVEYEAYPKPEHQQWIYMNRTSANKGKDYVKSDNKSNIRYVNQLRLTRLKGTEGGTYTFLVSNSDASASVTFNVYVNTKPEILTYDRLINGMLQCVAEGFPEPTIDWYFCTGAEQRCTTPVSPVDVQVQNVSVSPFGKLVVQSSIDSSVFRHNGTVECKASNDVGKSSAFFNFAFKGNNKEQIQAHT
Kind of experiment: Carterra SPR, mouse CD117. The protocol:
as §1

Experiment [1] concerns the target T3, Cluster of differentiation 117 (CD117), antigen of epitope binning and ELISA (UniProt P10721 26-520, limits assumed).
T3 construct: also called tyrosine-protein kinase KIT; mast/stem cell growth factor receptor (SCFR)
Kind of experiment: Carterra SPR, human CD117. The protocol: as §1

Experiment [2] deals with T4, CD117 transiently expressed on Expi293 cells (UniProt P10721 26-976, limits assumed).
T4 construct: whole, on cells; Two cassettes are described (P2A mVenus and direct mVenus fusion); also called CD117 transient cells; the transient cell line
The experiment is described as follows: FACS, MFI expressing / parental cells. The protocol: (§2) The transient expression of CD117 was validated with a control antibody, Expi293 (FIGS. 17A-17B). Expi293, […], was transiently transfected with CD117 48-hours post-transfection. The secondary antibody used was APC Goat anti-human IgG (diluted 1:400). 100,000 cells per well were blocked with 1×PBS+0.5% BSA for 1 hour, stained with 100 μL of the primary antibody for 1 hour, and stained with the secondary antibody for one hour, all with 3× washes in between each staining.
(In general: In flow cytometry, cells or beads pass a laser one at a time.)

Experiment [3] addresses CD117-GFP transiently overexpressed in HEK293T cells (UniProt P10721 26-976). The experiment is described as follows: cell-based or functional assay.
In experiment [4] the target is T4, CD117 transiently expressed on Expi293 …. The experiment is described as follows: FACS cell binding, Expi293 transiently expressing CD117. The protocol: as §2
The target is the same in experiment [5]. The experiment is described as follows: flow cytometry titration on CD117 transient cells and on parental Expi293. The protocol:
as §2

For experiment [6], the target named is T5, SIGLEC-8 transiently expressed on cells (UniProt Q9NYZ4 17-499, limits assumed).
T5 construct: whole, on cells; Two cassettes are described (P2A mVenus and direct mVenus fusion); also called the transient line; pTT5-SIGLEC-8 P2A mVenus
Kind of experiment: cell binding titration, transient SIGLEC-8 line.

For experiment [7], the target named is Sialic acid-binding immunoglobulin-like lectin 8 (SIGLEC-8), antigen of the Carterra SPR studies (UniProt Q9NYZ4 17-363, limits assumed). The experiment is described as follows: Carterra SPR kinetics, sensorgram panel. The procedure, abridged: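 Binding of antibodies to SIGLEC-8 was followed by surface plasmon resonance on a Carterra instrument to obtain rate constants and dissociation constants. Before these kinetic runs, clones from synthetic antibody libraries were selected by four rounds of bead-based panning and clonal ELISA, then expressed and purified.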
(In general: Surface plasmon resonance follows binding to a sensor surface in real time, without labels.)

For orientation: Kd means the free concentration of one partner at which half of the binding sites on the other are occupied at equilibrium, for simple one-to-one binding. A lower Kd goes with higher affinity. The term koff denotes the first-order rate constant of dissociation. One may read the kon as the second-order rate constant of association. In general, EC50 refers to the concentration giving half of the maximal effect. Read a high EC50 as weaker potency. One may read the EC50 (read off the curve) as the concentration that produces a half-maximal response.

T1 sequence (A0A7N9CP24 entry or part of it): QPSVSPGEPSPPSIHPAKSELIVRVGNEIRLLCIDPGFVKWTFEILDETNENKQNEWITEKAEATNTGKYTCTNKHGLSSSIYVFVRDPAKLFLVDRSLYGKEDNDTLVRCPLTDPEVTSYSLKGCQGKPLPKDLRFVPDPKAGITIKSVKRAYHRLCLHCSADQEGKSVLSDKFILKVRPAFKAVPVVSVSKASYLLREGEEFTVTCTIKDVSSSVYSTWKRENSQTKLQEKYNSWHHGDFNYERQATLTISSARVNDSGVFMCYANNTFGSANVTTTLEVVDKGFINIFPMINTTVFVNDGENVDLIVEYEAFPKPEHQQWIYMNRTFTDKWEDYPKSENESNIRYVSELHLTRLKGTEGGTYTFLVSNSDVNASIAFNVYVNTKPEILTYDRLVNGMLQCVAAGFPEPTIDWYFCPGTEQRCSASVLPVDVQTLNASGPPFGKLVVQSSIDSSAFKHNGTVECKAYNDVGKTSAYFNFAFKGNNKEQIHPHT
T4 sequence (P10721 26-976 limits assumed): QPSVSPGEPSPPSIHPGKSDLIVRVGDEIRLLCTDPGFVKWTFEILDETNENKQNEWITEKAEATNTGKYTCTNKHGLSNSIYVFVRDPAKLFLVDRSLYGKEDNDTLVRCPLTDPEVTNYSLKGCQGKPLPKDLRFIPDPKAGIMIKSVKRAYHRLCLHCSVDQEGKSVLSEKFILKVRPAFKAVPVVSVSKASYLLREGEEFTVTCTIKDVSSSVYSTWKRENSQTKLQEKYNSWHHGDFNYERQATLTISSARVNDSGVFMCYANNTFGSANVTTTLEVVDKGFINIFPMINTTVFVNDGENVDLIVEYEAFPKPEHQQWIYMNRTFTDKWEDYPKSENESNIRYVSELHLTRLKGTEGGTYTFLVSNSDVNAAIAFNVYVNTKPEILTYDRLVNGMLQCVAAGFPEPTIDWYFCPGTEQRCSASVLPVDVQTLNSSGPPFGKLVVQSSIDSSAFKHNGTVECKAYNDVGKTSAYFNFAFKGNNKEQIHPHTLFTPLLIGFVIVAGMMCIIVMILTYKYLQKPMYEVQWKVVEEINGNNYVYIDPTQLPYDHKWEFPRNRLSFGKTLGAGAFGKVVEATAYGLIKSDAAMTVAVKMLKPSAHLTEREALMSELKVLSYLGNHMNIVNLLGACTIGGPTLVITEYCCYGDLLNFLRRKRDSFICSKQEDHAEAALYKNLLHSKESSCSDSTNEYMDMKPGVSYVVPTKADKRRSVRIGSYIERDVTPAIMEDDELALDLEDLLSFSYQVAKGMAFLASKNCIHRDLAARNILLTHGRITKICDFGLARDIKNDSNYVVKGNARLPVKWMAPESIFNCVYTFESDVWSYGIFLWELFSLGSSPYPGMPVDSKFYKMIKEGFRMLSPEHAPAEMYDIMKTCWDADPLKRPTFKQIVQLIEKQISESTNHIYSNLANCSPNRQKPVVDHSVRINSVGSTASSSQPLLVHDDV
T3 sequence (P10721 26-520 limits assumed): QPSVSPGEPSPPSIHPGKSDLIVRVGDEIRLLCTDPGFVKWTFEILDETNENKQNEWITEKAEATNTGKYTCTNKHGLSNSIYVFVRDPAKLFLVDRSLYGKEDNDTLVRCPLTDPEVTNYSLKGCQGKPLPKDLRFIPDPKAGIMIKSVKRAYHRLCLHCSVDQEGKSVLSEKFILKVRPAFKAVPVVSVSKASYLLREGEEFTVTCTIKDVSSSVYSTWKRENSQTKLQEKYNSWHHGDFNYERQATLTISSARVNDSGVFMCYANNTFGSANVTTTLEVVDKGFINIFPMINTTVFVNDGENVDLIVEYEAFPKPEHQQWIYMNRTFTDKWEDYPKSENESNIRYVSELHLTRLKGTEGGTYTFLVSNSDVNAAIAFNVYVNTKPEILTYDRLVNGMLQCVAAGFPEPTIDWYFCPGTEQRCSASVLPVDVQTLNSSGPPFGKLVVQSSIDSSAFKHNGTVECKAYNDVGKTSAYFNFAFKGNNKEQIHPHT
T5 sequence (Q9NYZ4 17-499 limits assumed): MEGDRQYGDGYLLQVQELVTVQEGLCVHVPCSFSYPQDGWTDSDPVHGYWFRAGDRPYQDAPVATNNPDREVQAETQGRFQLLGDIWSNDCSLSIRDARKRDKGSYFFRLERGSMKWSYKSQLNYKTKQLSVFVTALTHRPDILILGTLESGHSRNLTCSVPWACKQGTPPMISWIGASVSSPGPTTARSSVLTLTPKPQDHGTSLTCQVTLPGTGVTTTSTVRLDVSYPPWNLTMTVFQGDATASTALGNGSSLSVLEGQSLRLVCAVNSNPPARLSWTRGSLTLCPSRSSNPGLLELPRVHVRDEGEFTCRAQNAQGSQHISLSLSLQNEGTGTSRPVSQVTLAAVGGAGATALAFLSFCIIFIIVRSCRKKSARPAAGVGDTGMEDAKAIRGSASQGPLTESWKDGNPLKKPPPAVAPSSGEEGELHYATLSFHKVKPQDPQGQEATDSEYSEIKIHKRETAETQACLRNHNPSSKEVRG
Sequence of Sialic acid-binding immunoglobulin-like lectin 8 (SIGLEC-8), antigen of the Carterra SPR studies (Q9NYZ4 17-363 limits assumed): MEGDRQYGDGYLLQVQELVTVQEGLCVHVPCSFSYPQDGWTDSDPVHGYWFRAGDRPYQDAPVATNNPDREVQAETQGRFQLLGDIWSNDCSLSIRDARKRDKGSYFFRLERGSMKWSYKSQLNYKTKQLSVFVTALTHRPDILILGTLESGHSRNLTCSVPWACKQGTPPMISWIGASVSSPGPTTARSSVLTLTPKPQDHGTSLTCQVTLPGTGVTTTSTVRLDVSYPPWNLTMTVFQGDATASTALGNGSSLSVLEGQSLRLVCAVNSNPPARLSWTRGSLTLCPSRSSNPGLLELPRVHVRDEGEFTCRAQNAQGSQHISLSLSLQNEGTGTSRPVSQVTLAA

B1: CD117-2 (antibody, human IgG1, kappa, V domains shown)
VH: EVQLLESGVGLVQPGGSLRLSCAASGFSFGSYAMSWVRQAPGKGLEWVSSISGSGGTTYYADSVKGRFTISRDNSKNTLYLQMNSLRAEDTAVYYCARDPDDYGDYYFDYWGQGTLVTVSS
VL: DIQMTQSPSSLSASVGDRVTITCRASQSIGEYLNWYQQKPGKAPKLLIYATSSLQRGVPSRFSGSGSGTDFTLTISSLQPEDFATYYCQQSHTTPYTFGGGTKVEIKR
notes: detected with anti-human IgG in FACS
In the experiment with cyno CD117, B1 gave a Kd of 607 nM, a koff of 0.201 s⁻¹ and a kon of 331000 M⁻¹ s⁻¹. In addition, in the experiment with mouse CD117, the dissociation constant Kd is 13.7 nM, the dissociation rate constant (koff) is 0.00222 s⁻¹ and the on-rate (kon) stood at 161000 M⁻¹ s⁻¹. For the same molecule, in [1], binding was put at a Kd of 208 nM, the koff was found to be 0.136 s⁻¹ and the kon came out at 655000 M⁻¹ s⁻¹. The “MFI Ratio” value in experiment [2] came to 30.7. Besides, in [3], the “IC50, inhibition of the SCF-stimulated SRF reporter signal (FFLuc/RLuc); same row prints log(IC50) -9.344 and Span -0.2266” value stood at 4.53e-10 M. The molecule also registered a half-maximal effective concentration (EC50) in experiment [4] of 0.742 nM. In addition, in experiment [5], the half-maximal effective concentration (EC50 (read off the curve)) is roughly 1 nM.

B2: SIGLEC-8-27 (antibody, human IgG1, kappa, V domains shown)
VH: EVQLLESGGGLVQPGGSLRLSCAASGFTFSNHVMSWVRQAPGKGLEWVSAISGSGASTYYADSVKGRFTISRDNSKNTLYLQMNSLRAEDTAVYYCARAPIAVAGTADHWGQGTLVTVSS
VL: DIQMTQSPSSLSASVGDRVTITCRASQSIGSDLNWYQQKPGKAPKLLIYGASRLESGVPSRFSGSGSGTDFTLTISSLQPEDFATYYCQQTFTNTPLTFGGGTKVEIKR
notes: tested as expressed and purified mAb
B2 displayed a concentration for a half-maximal effect (EC50) in experiment [6] of 904 nM. The binding result in experiment [7] is listed as “no binding”.

The values are drawn from US20260001953A1 (TWIST BIOSCIENCE, published 2026).
